Source: the Human Domainome abundance scans (Beltran et al. 2025)
± gives the uncertainty stated by the source.

Experiment: abundance fitness (aPCA) (normalised: wild type 0, dead -1); higher = more abundant; growth selection in yeast, the domain comes from the species named
Conditions: Homo sapiens

Row | Substance | abundance fitness
1 | Lipoamide acyltransferase component of branched-chain alpha-keto acid dehydrogenase complex, mitochondrial L180M, P11182 | 0.008 ± 0.088
2 | Lipoamide acyltransferase component of branched-chain alpha-keto acid dehydrogenase complex, mitochondrial L180P, P11182 | -0.557 ± 0.13
3 | Lipoamide acyltransferase component of branched-chain alpha-keto acid dehydrogenase complex, mitochondrial L180Q, P11182 | -0.403 ± 0.12
4 | Lipoamide acyltransferase component of branched-chain alpha-keto acid dehydrogenase complex, mitochondrial L180R, P11182 | -0.563 ± 0.046
5 | Lipoamide acyltransferase component of branched-chain alpha-keto acid dehydrogenase complex, mitochondrial L180V, P11182 | -0.222 ± 0.039
6 | Lipoamide acyltransferase component of branched-chain alpha-keto acid dehydrogenase complex, mitochondrial L180W, P11182 | -0.56 ± 0.047
7 | Lipoamide acyltransferase component of branched-chain alpha-keto acid dehydrogenase complex, mitochondrial L180Y, P11182 | -0.079 ± 0.1
8 | Lipoamide acyltransferase component of branched-chain alpha-keto acid dehydrogenase complex, mitochondrial L188A, P11182 | -0.494 ± 0.057
9 | Lipoamide acyltransferase component of branched-chain alpha-keto acid dehydrogenase complex, mitochondrial L188C, P11182 | -0.388 ± 0.062
10 | Lipoamide acyltransferase component of branched-chain alpha-keto acid dehydrogenase complex, mitochondrial L188D, P11182 | -0.535 ± 0.071
11 | Lipoamide acyltransferase component of branched-chain alpha-keto acid dehydrogenase complex, mitochondrial L188E, P11182 | -0.391 ± 0.048
12 | Lipoamide acyltransferase component of branched-chain alpha-keto acid dehydrogenase complex, mitochondrial L188F, P11182 | 0.116 ± 0.39
13 | Lipoamide acyltransferase component of branched-chain alpha-keto acid dehydrogenase complex, mitochondrial L188G, P11182 | -0.544 ± 0.036
14 | Lipoamide acyltransferase component of branched-chain alpha-keto acid dehydrogenase complex, mitochondrial L188H, P11182 | -0.368 ± 0.094
15 | Lipoamide acyltransferase component of branched-chain alpha-keto acid dehydrogenase complex, mitochondrial L188K, P11182 | -0.578 ± 0.052
16 | Lipoamide acyltransferase component of branched-chain alpha-keto acid dehydrogenase complex, mitochondrial L188M, P11182 | -0.248 ± 0.054
17 | Lipoamide acyltransferase component of branched-chain alpha-keto acid dehydrogenase complex, mitochondrial L188N, P11182 | -0.567 ± 0.095
18 | Lipoamide acyltransferase component of branched-chain alpha-keto acid dehydrogenase complex, mitochondrial L188P, P11182 | -0.412 ± 0.047
19 | Lipoamide acyltransferase component of branched-chain alpha-keto acid dehydrogenase complex, mitochondrial L188R, P11182 | -0.647 ± 0.04
